From paper PMC3317640, “A Novel Enzymatic System against Oxidative Stress in the Thermophilic Hydrogen-Oxidizing Bacterium Hydrogenobacter thermophilus” (PLoS ONE, 2012)

Legend:
[1] = substrate: CC(C)(C)OO; experiment: hydroperoxide removal, FOX1 (xylenol orange) assay, Michaelis-Menten; format: biochemical, Hydrogenobacter thermophilus; conditions: 0.5 mM NADPH and FNR as electron donor system, 50 mM sodium phosphate pH 6.0, 50°C, anaerobic
[2] = substrate: CC(C)(OO)c1ccccc1; experiment: as above; format: biochemical, Hydrogenobacter thermophilus; conditions: 0.5 mM NADPH and FNR as electron donor system, 50 mM sodium phosphate pH 6.0, 50°C, anaerobic

B1: ferriperoxin (Fpx) (Hydrogenobacter thermophilus TK-6) (protein)
chain: MKSLAGTKTLECLKHAFAGESQANRRYLYFARKADIEGYPDIANVFRETAEGETGHAFGHLEFLEKYGGGDPATGKPIGSMEQNLEAAIAGETYEYTEMYPGFAKTAREEGFDDIAEWFETLARAEKSHAGRFQKALESLKA
notes: full-length untagged (own start and stop codon, pET21c NdeI-HindIII), E. coli BL21(DE3); N-terminus MKSLAGTKTL; diiron holoprotein
Km [1]: 1300 ± 300 µM | Km [2]: 1100 ± 200 µM
